# Test results: US8461106B2, “Biofilm prevention using lactoferrin” (The Trustees of the University of Pennsylvania, priority 2007, dated 2013)
# Tested on: Pseudomonas aeruginosa (PAO1)
# Assay: Plate based peg-lid crystal violet biofilm formation assay (Moskowitz)
# Assay type: cell-based
# Settings: for detergent induced biofilm formation, effect of concomitant rhLactoferrin: 3 mg/ml rhLactoferrin
# Experimental: Biofilm growth is determined using the plate based assay described by Moskowitz et al [Moskowitz, S. M., J. M. Foster, J. Emerson, et al., Clinically Feasible Biofilm Susceptibility Assay for Isolates of Pseudomonas Aeruginosa from Patients with Cystic Fibrosis. J Clin Microbiol, 2004. 42(5): p. 1915-22]. Pseudomonas aeruginosa (PAO1) cultures are grown to log phase (OD600=0.5) and 100 μl of culture is mixed with 25 μl of test 5× test substance and placed in 96 well flat bottom plates (Nalgene Nunc International, Rochester, N.Y.). A lid containing 96 polystyrene pegs (Nunc, TSP 96 well micro titer plate lid) is placed on top and the pegs are suspended in the wells. The lid is loosely fixed to the plate using a strip of parafilm (Menasha, Wis.). The plate is incubated without shaking at 37° C. for 20 hours at which time the lid containing the pegs is carefully removed from the 96 well culture plate and rinsed 3 times in sterile water. The pegs are placed in another 96 well plate containing Gram Crystal Violet (CV) (20 g/L CV, 8 g/L Ammonium Oxalate, 2% ethanol) for 15 min and then rinsed in sterile water three times to remove unbound crystal violet. The pegs are then immersed in a 96 well plate containing 200 ul of 100% EtOH for 15 minutes. The lid containing the pegs is removed from the eluted crystal violet and is read at 595 nm using a plate reader (Microplate Reader 680, Bio-Rad Hercules, Calif.).
# These mutants are used as negative controls in each of the experiments to determine background signal above the blank.
# The concentration of baby shampoo/chemical surfactant used for the clinical study was determined through in-vitro testing on planktonic pseudomonas aeruginosa and pre-formed pseudomonas aeruginosa biofilms. Bacterial and biofilm growth inhibition was determined using the plate based assay described in Moskowitz et al., (Clinically feasible biofilm susceptibility assay for isolates of Pseudomonas aeruginosa from patients with cystic fibrosis. J. Clinical Microbiology 2004; 42:1915-22). Briefly, PAO1 Pseudomonas aeruginosa bacterial strains were grown overnight. The following morning the culture was diluted to an OD600=0.1 with Luria-Bertani broth (LB) and the sample again diluted 1:100 in LB. […] At the completion of the incubation the lid containing the pegs was removed and processed for biofilm detection while the 96 well plate was analyzed for bacterial growth by determination of absorbance at 600 nm. […] The peg lid was then discarded and the eluted crystal violate was read on a microtiter plate reader (Microplate Reader 680, Bio-Rad Hercules, Calif.) at an optical density of 595 nm (OD595). […] Quantification of residual biofilms was performed as described above.
molecule,measurement,setting,value
"rhLactoferrin: Recombinant human lactoferrin produced in Aspergillus niger, structurally identical to native human lactoferrin (protein, UniProt P02788 20-710, looked up, recombinant, Aspergillus niger) Lactotransferrin: GRRRSVQWCAVSQPEATKCFQWQRNMRKVRGPPVSCIKRDSPIQCIQAIAENRADAVTLDGGFIYEAGLAPYKLRPVAAEVYGTERQPRTHYYAVAVVKKGGSFQLNELQGLKSCHTGLRRTAGWNVPIGTLRPFLNWTGPPEPIEAAVARFFSASCVPGADKGQFPNLCRLCAGTGENKCAFSSQEPYFSYSGAFKCLRDGAGDVAFIRESTVFEDLSDEAERDEYELLCPDNTRKPVDKFKDCHLARVPSHAVVARSVNGKEDAIWNLLRQAQEKFGKDKSPKFQLFGSPSGQKDLLFKDSAIGFSRVPPRIDSGLYLGSGYFTAIQNLRKSEEEVAARRARVVWCAVGEQELRKCNQWSGLSEGSVTCSSASTTEDCIALVLKGEADAMSLDGGYVYTAGKCGLVPVLAENYKSQQSSDPDPNCVDRPVEGYLAVAVVRRSDTSLTWNSVKGKKSCHTAVDRTAGWNIPMGLLFNQTGSCKFDEYFSQSCAPGSDPRSNLCALCIGDEQGENKCVPNSNERYYGYTGAFRCLAENAGDVAFVKDVTVLQNTDGNNNEAWAKDLKLADFALLCLDGKRKPVTEARSCHLAMAPNHAVVSRMDKVERLKQVLLHQQAKFGRNGSDCPDKFCLFQSETKNLLFNDNTECLARLHGKTTYEKYLGPQYVAGITNLKKCSTSPLLEACEFLRK","detergent induced biofilm formation, effect of concomitant rhLactoferrin","induction by Curosurf, FIG. 5 bottom panel",blunts the induction of biofilm formation
same,"detergent induced biofilm formation, effect of concomitant rhLactoferrin","induction by Johnson and Johnson Baby Shampoo, FIG. 5 top panel",blunts the induction of biofilm formation
same,"detergent induced biofilm formation, effect of rhLactoferrin","detergents in general, FIGS. 4 and 5",inhibits detergent induced biofilm formation
same,"induction of biofilm formation by subtherapeutic concentrations of antibiotics, effect of added rhLactoferrin","subtherapeutic Cephalosporins and aminoglycosides, FIG. 3",blunted
